From paper PMC9992173, “Mapping of the extracellular RBP4 ligand binding domain on the RBPR2 receptor for Vitamin A transport” (Frontiers in Cell and Developmental Biology, 2023)

Columns and labels:
[1] = molecular target: Recombinant mouse RBP4 with 6XHis Tag (mouse) (UniProt Q00724); assay: SPR; mouse RBP4 amine-coupled to a CM5 chip (target 1,200 RU), Biacore S200; peptides as analytes, 0.8-26.6 uM; running buffer PBST (0.05% Tween20); 25 C; contact 120 s, dissociation 300 s; Kd from the site-specific binding fit Y=(Bmax*X)/(Kd+X)
RBP4 = RBP4 (UniProt P02753); settings: cited from earlier work

Row | Kd [1] | Substance | Kd (RBP4)
1 | 34.9 µM | mouse RBPR2-Y295P mutant peptide (from UniProt Q9DBN1 280-321) | 
2 | 21.3 µM | mouse RBPR2-L296S mutant peptide (from UniProt Q9DBN1 280-321) | 
3 |  | STRA6 (from UniProt Q9BX79) | 22.4 µM
4 | 89.3 µM | mouse RBPR2-S294A mutant peptide (from UniProt Q9DBN1 280-321) | 
